# Assay results as given in the DeepSol protein solubility set.
# Experiment: soluble on expression in E. coli; label from the status in PepcDB or PDB records
row,Sequence,soluble on expression in E. coli
1,SNAMKTEKDKMLAGEMYIADDEELVADRVEAKRLTRLYNEAVETGDERRFTLLNQLLGSSADGKAQINPDFRCDYGYNIHVGKSFFANFNCVILDVCEVRIGDHCMFAPGVHIYTATHPLHPVERNSGKEYGKPVKIGNNVWVGGGAIINPGVSIGDNAVIASGAVVTKDVPNNVVVGGNPAKVIKTIEE,soluble
2,SNAMKYTVYLFDFDYTLADSSRGIVTCFRSVLERHGYTGITDDMIKRTIGKTLEESFSILTGITDADQLESFRQEYSKEADIYMNANTILFPDTLPTLTHLKKQGIRIGIISTKYRFRILSFLRNHMPDDWFDIIIGGEDVTHHKPDPEGLLLAIDRLKACPEEVLYIGDSTVDAGTAAAAGVSFTGVTSGMTTAQEFQAYPYDRIISTLGQLISVPEDKSGCPL,soluble
3,SNAMLNTLIVGASGYAGAELVTYVNRHPHMNITALTVSAQSNDAGKLISDLHPQLKGIVELPLQPMSDISEFSPGVDVVFLATAHEVSHDLAPQFLEAGCVVFDLSGAFRVNDATFYEKYYGFTHQYPELLEQAAYGLAEWCGNKLKEANLIAVPGCYPTAAQLALKPLIDADLLDLNQWPVINATSGVSGAGRKAAISNSFCEVSLQPYGVFTHRHQPEIATHLGADVIFTPHLGNFPRGILETITCRLKSGVTQAQVAQALQQAYAHKPLVRLYDKGVPALKNVVGLPFCDIGFAVQGEHLIIVATEDNLLKGAAAQAVQCANIRFGYAETQSLI,soluble
4,SNAMNASAVETIYESTEDKAALTSVVDLVKLSDQYRQSAILHYAVADKLFDLTQTGRTPAEVAASFGMVEGKAAILLHALAALGLLTKEGDAFRNTALTERYLTTTSADYIGPIVEHQYLQWDNWPRLGEILRSEKPLAFQQESRFAHDTRARDAFNDAMVRLSQPMVDVVSELGVFARARTVIDLAGGHGTYLAQVLRRHPQLTGQIWDLPTTRDAARKTIHAHDLGGRVEFFEKNLLDARNFEGGAADVVMLNDCLHYFDAREAREVIGHAAGLVKPGGALLILTMTMNDDRVTPALSADFSLHMMVNTNHGELHPTPWIAGVVRDAGLAVGERSIGRYTLLIGQRSSGE,soluble
5,SNAMNIQILQEQANTLRFLSADMVQKANSGHPGAPLGLADILSVLSYHLKHNPKNPTWLNRDRLVFSGGHASALLYSFLHLSGYDLSLEDLKNFRQLHSKTPGHPEISTLGVEIATGPLGQGVANAVGFAMAAKKAQNLLGSDLIDHKIYCLCGDGDLQEGISYEACSLAGLHKLDNFILIYDSNNISIEGDVGLAFNENVKMRFEAQGFEVLSINGHDYEEINKALEQAKKSTKPCLIIAKTTIAKGAGELEGSHKSHGAPLGEEVIKKAKEQAGFDPNISFHIPQASKIRFESAVELGDLEEAKWKDKLEKSAKKELLERLLNPDFNKIAYPDFKGKDLATRDSNGEILNVLAKNLEGFLGGSADLGPSNKTELHSMGDFVEGKNIHFGIREHAMAAINNAFARYGIFLPFSATFFIFSEYLKPAARIAALMKIKHFFIFTHDSIGVGEDGPTHQPIEQLSTFRAMPNFLTFRPADGVENVKAWQIALNADIPSAFVLSRQKLKALNEPVFGDVKNGAYLLKESKEAKFTLLASGSEVWLCLESANELEKQGFACNVVSMPCFELFEKQDKAYQERLLKGEVIGVEAAHSNELYKFCHKVYGIESFGESGKDKDVFERFGFSVSKLVNFILSK,soluble
6,SNAMSGNGNAAATAEENSPKMRVIRVGTRKSQLARIQTDSVVATLKASYPGLQFEIIAMSTTGDKILDTALSKIGEKSLFTKELEHALEKNEVDLVVHSLKDLPTVLPPGFTIGAICKRENPHDAVVFHPKFVGKTLETLPEKSVVGTSSLRRAAQLQRKFPHLEFRSIRGNLNTRLRKLDEQQEFSAIILATAGLQRMGWHNRVGQILHPEECMYAVGQGALGVEVRAKDQDILDLVGVLHDPETLLRCIAERAFLRHLEGGCSVPVAVHTAMKDGQLYLTGGVWSLDGSDSIQETMQATIHVPAQHEDGPEDDPQLVGITARNIPRGPQLAAQNLGISLANLLLSKGAKNILDVARQLNDAH,soluble
7,SNAMSTISRDSCPALRAGVRLQHDRARDQWVLLAPERVVELDDIALVVAQRYDGTQSLAQIAQTLAAEFDADASEIETDVIELTTTLHQKRLLRL,soluble
8,SNAMTQSPIFLTPVFKEKIWGGTALRDRFGYSIPSESTGECWAISAHPKGPSTVANGPYKGKTLIELWEEHREVFGGVEGDRFPLLTKLLDVKEDTSIKVHPDDYYAGENEEGELGKTECWYIIDCKENAEIIYGHTARSKTELVTMINSGDWEGLLRRIKIKPGDFYYVPSGTLHALCKGALVLETQQNSDATYRVYDYDRLDSNGSPRELHFAKAVNAATVPHVDGYIDESTESRKGITIKTFVQGEYFSVYKWDINGEAEMAQDESFLICSVIEGSGLLKYEDKTCPLKKGDHFILPAQMPDFTIKGTCTLIVSHI,soluble
9,SNAMTSLEEITKAIMADSQNKVFTEKNIEPLFAAPKTARINIVGQAPGIKAQESRLYWNDKSGDRLREWMGVDYDTFYHSGYFAVIPMDFYYPGKGKSGDLPPRKGFAQKWHQPILDLLPDIQLTILIGNYAQKYYLHQKSSVKLTDTVAHYKKYLPDYFPLVHPSPRNQIWMSRHPWFEAQVVPDLKKIIQQIIQSS,soluble
10,SNAMVKDRQIQKTKVAIYNAFISLLQENDYSKITVQDVIGLANVGRSTFYSHYESKEVLLKELCEDLFHHLFKQGRDVTFEEYLVHILKHFEQNQDSIATLLLSDDPYFLLRFRSELEHDVYPRLREEYITKVDIPEDFLKQFLLSSFIETLKWWLHQRQKMTVEDLLKYYLTMVER,soluble
11,SNASVRPSLWEFSSRVGMHVGASTPVPVPQAMEHVYAWYPRLNPMVQLSASRRLLAGSPWAVNVGIAVEKKGMEATTRVKDMKVAIVSDSPYAGNPDEEYPGLFTGDNNTEIRLGYLTIPVQAEYNMLKDRLKLRGGLYTSLLLESSFRVIIDGTMVYDDPKLGTAQMDLRELNFSDKIKGADFGVIIGADYYFARQ,not soluble
12,SNTKKEIIWYKEKAQKTNYSVVYIHGFGASKNEIYPVPNNIAKALNANIFFTRLKGHGINNKNAFRGITTQDWLRDIDEAINIGKLIGDKLVLIGTSNGGTASIWALANYPNEINSAVLISPNIFPYDKRTNIVYYPWGRQIAYLITGGYNKFETKEYKRKEHPTIKSHSSRVQHVDAIIAMMGLVTLLNSYNFNEIKIPLIITHTPNDHTVDPIKINEFIKNYGGEKKDIPIILLENSHAHLPIGNQSYKSAQNTSYFTKYVFDFINKINK,not soluble
13,SPGNRENKEKKVFISLVGSRGLGCSISSGPIQKPGIFISHVKPGSLSAEVGLEIGDQIVEVNGVDFSNLDHKEAVNVLKSSRSLTISIVAAAGRELFMTDR,soluble
14,SPLPVALQTRLAKRGILKHLEPEPEEEIIAEDYDDDPVDYEATRLEGLPPSWYKVFDPSCGLPYYWNADTDLVSWLSPHDPNSVVTKSAKKLRSSNADAEEKLDRSHDKSDRGHDKSDRSHEKLDRGHDKSDRGHDKSDRDRERGYDKVDRERERDRERDRDRGYDKADREEGKERRHHRREELAPYPKSKKAVSRKDEELDPMDPSSYSDAPRGTWSTGLPKRNEAKTGADTTAAGPLFQQRPYPSPGAVLRANAEASRTKQQD,soluble
15,SPSTNRKYPPLPVDKLEEEINRRMADDNKLFREEFNALPACPIQATCEAASKEENKEKNRYVNILPYDHSRVHLTPVEGVPDSDYINASFINGYQEKNKFIAAQGPKEETVNDFWRMIWEQNTATIVMVTNLKERKECKCAQYWPDQGCWTYGNVRVSVEDVTVLVDYTVRKFCIQQVGDVTNRKPQRLITQFHFTSWPDFGVPFTPIGMLKFLKKVKACNPQYAGAIVVHCSAGVGRTGTFVVIDAMLDMMHSERKVDVYGFVSRIRAQRCQMVQTDMQYVFIYQALLEHYLYGDTELEVT,soluble
16,SQQVDKIKASYPLFLDQDYKDMLAKKRDGFEEKYPQDKIDEVFQWTTTKEYQELNFQREALTVNPAKACQPLGAVLCALGFEKTMPYVHGSQGCVAYFRSYFNRHFREPVSCVSDSMTEDAAVFGGQQNMKDGLQNCKATYKPDMIAVSTTCMAEVIGDDLNAFINNSKKEGFIPDEFPVPFAHTPSFVGSHVTGWDNMFEGIARYFTLKSMDDKVVGSNKKINIVPGFETYLGNFRVIKRMLSEMGVGYSLLSDPEEVLDTPADGQFRMYAGGTTQEEMKDAPNALNTVLLQPWHLEKTKKFVEGTWKHEVPKLNIPMGLDWTDEFLMKVSEISGQPIPASLTKERGRLVDMMTDSHTWLHGKRFALWGDPDFVMGLVKFLLELGCEPVHILCHNGNKRWKKAVDAILAASPYGKNATVYIGKDLWHLRSLVFTDKPDFMIGNSYGKFIQRDTLHKGKEFEVPLIRIGFPIFDRHHLHRSTTLGYEGAMQILTTLVNSILERLDEETRGMQATDYNHDLVR,soluble
17,SRDSAFRERLLRLAPKYPLVLAVSGGGDSVALALLVKEAGRQAVVAHLDHGLRPESPLDQAFVRALAERLGFPFFTERVEVARIAQARGENLEAVAREVRYAFLHRVAREVGARAILTAHTLDDQAETVLLQLLQGTARATGIREREGIVVRPLLAHTREELRAYLRARGEAWREDPTNQDPALDRNFLRLFVFPLLEERFPAAKRALARFAEARAEEEGVLERQAEARLLPDPRFFVPAFRAAPLLEAPLAVRRRALRRLLEKLGLRPEARLVLLLEEALRGRPQTLPGGVLARRKGGTLFLLPPRPRLPLPPGFRRPAPGDYLERPSGRKRLVDFLAEKGVPRELKPLWPVRAEGNRVVEVLGLYPPPPEEAHMAEALAEAASAFREGEVPVGAVLVLPGRVLRAHNRVEGLRDPTAHAEMLLLREAGPEARGGRLYVTLEPCLMCHHALAQAGVEVVYGAENLKEGALTRFGLPTRARGGVRERECAKLLRDFFARLREGCRSG,soluble
18,SRMEQVIVKQGKDALTADAVFVSANPLSDSLLKSTEQLERSVMTRFSTMAFSDNGMQLISVRGVDESYPLMGELVLDGNESGRVKPNQLWLDERIMAQLEVTKGDNVTIGDADFTVSGAVLMEPGLSFNPFQQMPAAYIHQSDVEKTGAIQVGSRVQYRLFLKADNAALKQLQDKTELSPSDRWRTQDTASRSNEVFDRTTQ,not soluble
19,SRMMVIKNNSEETKSREYIVIGQVFFASSDKFIASFDFKEVIECVTIDLSAAHFWDITSASALDKVVVKFRREGTQVELIGMNQATKTIVDKFGVHDKPEEVEKLLAG,not soluble
20,SSEADQALVGPKADEPSPPAEEKDEGGGKEAAADAAPGPSASFRLMVTRREPAVKLQYAVSGLEPLSWSEDHRVSVSTARSVAVLELICDVHNPGQDLVIHRTSVPAPLNSCLLKVGSKTEVAECKEKFASSKDPTISQTFMLDRMFNPEGKALPPMRGFKYTSWSPMGCDANGRCLLAALTMDNRLTVQVNLNRLQWVQLVDLTEIYGDRLYETSYRLSKNEAPEGNLGDFAEFQRRHSMQTPVRMEWSSICTTQQVKHNNECRDVSS,soluble
21,SSEVLDGFDKVDKSLASSIDGSDKRNNLVLSELNTAYRTNPEKVKVWYERSLVLQKEADSLCTFIDDLKLAIARESDGKDAKVNDIRRKDNLDASSVIMLNPINGKGSTLRKEVDKFRELVATLMTDKAKLKLIEQALNTESGTKGKSWESSLFENMPTVAAITLLTKLQSDVRYAQGEVLADLVKSVDVGDYRVNSITAQVIPQSQIVMSGDTYKANIVLSSVDTTQRPDVFVNGKLLSPENMGLFTATAGAPGTYPVKGYIEMMGNDGVKIRRDFESEYFVTE,not soluble
